Assays:
[1] = molecular target: T1, human APRIL (Examples 21-23) (human, UniProt O75888 105-250); test: ratio of KD values of Table 11, assay not stated (Example 21); reference Atacicept
T1 construct: also called huAPRIL
T1 sequence: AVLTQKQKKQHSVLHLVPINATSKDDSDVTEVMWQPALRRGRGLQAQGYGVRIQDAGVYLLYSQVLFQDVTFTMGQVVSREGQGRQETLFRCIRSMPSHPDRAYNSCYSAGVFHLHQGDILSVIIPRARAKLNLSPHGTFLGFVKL

[2] = molecular target: T2, human BAFF (Examples 21-23) (human, UniProt Q9Y275 134-285); test: as above
T2 construct: also called huBAFF

[3] = molecular target: T1, human APRIL (Examples 21-23); test: assay not given (Example 21)
[4] = molecular target: T2, human BAFF (Examples 21-23); test: assay not given (Example 21)
[5] = molecular target: T3, murine APRIL (Examples 22-23) (mouse, UniProt Q9D777 96-241); test: SPR (Carterra LSA, HC30M chip); murine ligand (Table 13)
T3 sequence (looked up): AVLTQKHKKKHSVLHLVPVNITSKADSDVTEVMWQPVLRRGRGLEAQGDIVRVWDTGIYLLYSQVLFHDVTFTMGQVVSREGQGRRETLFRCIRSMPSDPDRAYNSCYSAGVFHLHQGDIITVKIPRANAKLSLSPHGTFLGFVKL
Procedure: (§1) The KD of a BAv9-1 CRD-IgG4 Fc fusion protein, and other BAFF or APRIL binding molecules, the BAFF/APRIL binding molecule Atacicept and a different recombinant TACI-Fc fusion protein RC18 (also known as Telitacicept), to human or murine BAFF or human or murine APRIL were determined by surface plasmon resonance (Carterra LSA, HC30M sensor chip).

[6] = molecular target: T4, murine BAFF (Examples 22-23) (mouse, UniProt Q9WU72 127-309); test: SPR (Carterra LSA, HC30M chip)
T4 sequence (Q9WU72 127-309 limits assumed): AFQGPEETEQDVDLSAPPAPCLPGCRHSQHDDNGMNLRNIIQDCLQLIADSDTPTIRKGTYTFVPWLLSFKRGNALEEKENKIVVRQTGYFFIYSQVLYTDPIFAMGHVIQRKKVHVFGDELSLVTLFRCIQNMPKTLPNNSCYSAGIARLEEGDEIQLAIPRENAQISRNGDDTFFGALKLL
Procedure: as §1

[7] = molecular target: T1, human APRIL (Examples 21-23); test: SPR (Carterra LSA, HC30M chip)
Procedure: as §1

[8] = molecular target: T2, human BAFF (Examples 21-23); test: SPR (Carterra LSA, HC30M chip)
Procedure: as §1

[9] = molecular target: T4, murine BAFF (Examples 22-23); test: colorimetric ELISA, inhibition curves
Source text: (§2) A colorimetric ELISA was used to assess the binding of BAFF/APRIL binding molecules to human and murine BAFF and APRIL. Inhibition curves based on binding to soluble human and murine BAFF and APRIL were used to determine the IC₅₀ values for binding of the exemplary BCMA CRD variant-IgG4 fusion protein BAv9-1 CRD-IgG4 Fc, Atacicept and a different recombinant TACI-Fc fusion protein RC18 (also known as Telitacicept).
(§3) FIG. 34A and FIG. 34B show the inhibition curves of the three different BAFF/APRIL binding molecules to murine BAFF (FIG. 34A) and murine APRIL (FIG. 34B). Compared to the IC₅₀ values determined for Atacicept and RC18 (Telitacicept), the IC₅₀ of the exemplary BCMA CRD variant-IgG4 fusion protein BAv9-1 CRD-IgG4 Fc was orders of magnitude lower for both murine BAFF and murine APRIL. The IC₅₀ values for BAv9-1 CRD-IgG4 Fc for murine BAFF and murine APRIL were 1.5 nM and 2.7 nM respectively.

[10] = molecular target: T1, human APRIL (Examples 21-23); test: colorimetric ELISA, inhibition curves
Source text: as §2, §3

[11] = molecular target: T3, murine APRIL (Examples 22-23); test: colorimetric ELISA, inhibition curves
Source text: as §2, §3

[12] = molecular target: T1, human APRIL (Examples 21-23); test: assay not given (Example 21); remark: listed apart in the source
[13] = molecular target: T2, human BAFF (Examples 21-23); test: assay not given (Example 21); remark: listed apart in the source
[14] = molecular target: human BAFF (Acros Biosystems) (human, UniProt Q9Y275 134-285); test: cell-based or functional assay
[15] = molecular target: human BAFF-60mer (Adipogen) (human, UniProt Q9Y275 134-285); test: cell-based or functional assay
[16] = molecular target: T5, human APRIL (Acros Biosystems) (human, UniProt O75888 115-250, limits assumed); test: cell-based or functional assay
T5 sequence: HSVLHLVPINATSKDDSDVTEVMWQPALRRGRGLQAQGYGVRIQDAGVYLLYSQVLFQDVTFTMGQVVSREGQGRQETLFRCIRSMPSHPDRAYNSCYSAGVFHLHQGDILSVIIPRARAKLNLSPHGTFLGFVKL

fold higher binding affinity compared to Atacicept [1]: 600 to 800 fold
fold higher binding affinity compared to Atacicept [2]: 600 to 800 fold
Kd [3]: 0.00015 nM
Kd [4]: 0.00024 nM
Kd [5]: 0.00015 nM
Kd [6]: 0.031 nM
Kd [7]: 0.025 nM
Kd [8]: 0.117 nM
IC50 [9]: 1.5 nM
IC50 [10]: 0.002 nM
IC50 [11]: 2.7 nM
fold higher binding affinity vs Atacicept [12]: 600 to 800 fold
fold higher binding affinity vs Atacicept [13]: 600 to 800 fold
IC50 for proliferation of stimulated B cells, Donor 1, BAFF + anti-IgM [14]: 0.311 nM
IC50 for proliferation of stimulated B cells, Donor 2, BAFF + anti-IgM [14]: 0.000215 nM
IC50 for proliferation of stimulated B cells, Donor 3, BAFF + anti-IgM [14]: 0.0201 nM
IC50 for proliferation of stimulated B cells, Donor 1, BAFF-60mer + anti-IgM [15]: 0.835 nM
IC50 for proliferation of stimulated B cells, Donor 2, BAFF-60mer + anti-IgM [15]: 0.577 nM
IC50 for proliferation of stimulated B cells, Donor 3, BAFF-60mer + anti-IgM [15]: 0.61 nM
IC50 for proliferation of stimulated B cells, Donor 1, APRIL + anti-IgM [16]: 0.662 nM
IC50 for proliferation of stimulated B cells, Donor 2, APRIL + anti-IgM [16]: 0.226 nM
IC50 for proliferation of stimulated B cells, Donor 3, APRIL + anti-IgM [16]: 0.366 nM
B1: BAv9-1 CRD-IgG4 Fc (Fc fusion)
chain: AGQCSQNEYFDHLIRACIPCQLRCSSNTPPLTCQRYCNAGVTNSVGGGGSAESKYGPPCPPCPAPEAAGGPSVFLFPPKPKDTLMISRTPEVTCVVVDVSQEDPEVQFNWYVDGVEVHNAKTKPREEQFNSTYRVVSVLTVLHQDWLNGKEYKCKVSNKGLPSSIEKTISKAKGQPREPQVYTLPPSQEEMTKNQVSLTCLVKGFYPSDIAVEWESNGQPENNYKTTPPVLDSDGSFFLYSRLTVDKSRWQEGNVFSCSVMHEALHNHYTQKSLSLSPGK
notes: mature expressed protein; also called BAv9-1 CRD-Ig Fc; exemplary BCMA CRD variant-IgG4 fusion protein

Reference: patent US20250042970A1 (AURINIA PHARMACEUTICALS, published 2025)
